# In publication PMC7424515, “Molecular characterization of pyridoxine 5′-phosphate oxidase and its pathogenic forms associated with neonatal epileptic encephalopathy” (Scientific Reports, 2020):
# Target: human PNPO X262Q variant (human)
# Assay: SEC; Superdex 200 10/300 GL; 20 mM potassium-phosphate buffer, pH 7.6, 150 mM NaCl, 5 mM 2-mercaptoethanol; oligomeric state from elution profile
row,Molecule,stoichiometry N
1,human PNPO X262Q variant (enzyme),2

# Target: the molecule itself
# Assay: as above
row,Molecule,stoichiometry N
1,"human pyridoxine 5′-phosphate oxidase (PNPO), wild type (enzyme, also called wild type PNPO; pyridoxal 5′-phosphate synthase; source: E. coli, pET28-PNPO, purified (HisTrap metal-chelation chromatography)) MTCWLRGVTATFGRPAEWPGYLSHLCGRSAAMDLGPMRKSYRGDREAFEETHLTSLDPVKQFAAWFEEAVQCPDIGEANAMCLATCTRDGKPSARMLLLKGFGKDGFRFFTNFESRKGKELDSNPFASLVFYWEPLNRQVRVEGPVKKLPEEEAECYFHSRPKSSQIGAVVSHQSSVIPDREYLRKKNEELEQLYQDQEVPKPKSWGGYVLYPQVMEFWQGQTNRLHDRIVFRRGLPTGDSPLGPMTHRGEEDWLYERLAP",2
2,"human PNPO R116Q/R225H double variant (enzyme, Combination of replacements found together in PNPOD patients; source: E. coli Rosetta(λDE3), purified (HisTrap metal-chelation chromatography)) MTCWLRGVTATFGRPAEWPGYLSHLCGRSAAMDLGPMRKSYRGDREAFEETHLTSLDPVKQFAAWFEEAVQCPDIGEANAMCLATCTRDGKPSARMLLLKGFGKDGFRFFTNFESQKGKELDSNPFASLVFYWEPLNRQVRVEGPVKKLPEEEAECYFHSRPKSSQIGAVVSHQSSVIPDREYLRKKNEELEQLYQDQEVPKPKSWGGYVLYPQVMEFWQGQTNHLHDRIVFRRGLPTGDSPLGPMTHRGEEDWLYERLAP",2
3,"human PNPO G118R variant (enzyme, Pathogenic variant found in PNPOD patients; source: E. coli Rosetta(λDE3), purified (HisTrap metal-chelation chromatography)) MTCWLRGVTATFGRPAEWPGYLSHLCGRSAAMDLGPMRKSYRGDREAFEETHLTSLDPVKQFAAWFEEAVQCPDIGEANAMCLATCTRDGKPSARMLLLKGFGKDGFRFFTNFESRKRKELDSNPFASLVFYWEPLNRQVRVEGPVKKLPEEEAECYFHSRPKSSQIGAVVSHQSSVIPDREYLRKKNEELEQLYQDQEVPKPKSWGGYVLYPQVMEFWQGQTNRLHDRIVFRRGLPTGDSPLGPMTHRGEEDWLYERLAP",2
4,"human PNPO R225H variant (enzyme, Pathogenic variant found in PNPOD patients; source: E. coli Rosetta(λDE3), purified (HisTrap metal-chelation chromatography)) MTCWLRGVTATFGRPAEWPGYLSHLCGRSAAMDLGPMRKSYRGDREAFEETHLTSLDPVKQFAAWFEEAVQCPDIGEANAMCLATCTRDGKPSARMLLLKGFGKDGFRFFTNFESRKGKELDSNPFASLVFYWEPLNRQVRVEGPVKKLPEEEAECYFHSRPKSSQIGAVVSHQSSVIPDREYLRKKNEELEQLYQDQEVPKPKSWGGYVLYPQVMEFWQGQTNHLHDRIVFRRGLPTGDSPLGPMTHRGEEDWLYERLAP",2
5,"human PNPO R141C variant (enzyme, Pathogenic variant found in a PNPOD patient; source: E. coli Rosetta(λDE3), purified (HisTrap metal-chelation chromatography)) MTCWLRGVTATFGRPAEWPGYLSHLCGRSAAMDLGPMRKSYRGDREAFEETHLTSLDPVKQFAAWFEEAVQCPDIGEANAMCLATCTRDGKPSARMLLLKGFGKDGFRFFTNFESRKGKELDSNPFASLVFYWEPLNRQVCVEGPVKKLPEEEAECYFHSRPKSSQIGAVVSHQSSVIPDREYLRKKNEELEQLYQDQEVPKPKSWGGYVLYPQVMEFWQGQTNRLHDRIVFRRGLPTGDSPLGPMTHRGEEDWLYERLAP",2
